First the molecules themselves.
B1: C12 (VHH)
VHH: QVQLVESGGGLVQPGGSLRLSCAASSNIFRAYGMDWYRQAPGKQREMVATIWLSGRSTYTDAVKGRFTISRDNAKNTVYLQMNNLKPEDTAVYYCNAGPTTASSVRQYWGQGTQVTVSS
notes: Alpaca VHH tested as culture supernatant of IPTG-induced HB2151 bacteria (pComb3XSS phagemid); also called clone C12
B2: C27 (VHH)
VHH: EVQLVESGGGLVQPGGSLRLSCTSSSNIFKIYGMDWYRQAPGKQREIVATIYLSGRTTYSDAVKGRFTISRDNAKNTVYLQMNTLKPEDTAVYYCNAGETTASSVRQYWGQGTQVTVSS
notes: Alpaca VHH tested as culture supernatant of IPTG-induced HB2151 bacteria (pComb3XSS phagemid); also called clone C27
B3: C13 (VHH)
VHH: B1 VHH with S57T, N84S, P99A, T100P, V105G
notes: Alpaca VHH tested as culture supernatant of IPTG-induced HB2151 bacteria (pComb3XSS phagemid); also called clone C13
B4: C08 (VHH)
VHH: EVQLVESGGGLVQPGGSLRLSCAASSNIFRAYGMGWYRQAPGKQREMVAAIWLSGRTEYADAVQGRFTVSRDNAKNTVYLQMNSLKPEDTAVYYCNAGPPTATSVRQYWGQGTQVTVSS
notes: Alpaca VHH tested as culture supernatant of IPTG-induced HB2151 bacteria (pComb3XSS phagemid); also called C8; clone C08
B5: C21 (VHH)
VHH: B2 VHH with E1Q, K30R, N76D, T84S, T100P
notes: Alpaca VHH tested as culture supernatant of IPTG-induced HB2151 bacteria (pComb3XSS phagemid); also called clone C21
B6: C15 (VHH)
VHH: B1 VHH with L11V, K64Q
notes: Alpaca VHH tested as culture supernatant of IPTG-induced HB2151 bacteria (pComb3XSS phagemid); also called clone C15
B7: C30 (VHH)
VHH: QVQLVESGGGLVQPGGSLRLSCAASGSIFRVYGMDWYRQAPGKQRELVASIFLSGRTNYADAVKGRFTLSRDNAKNTMYLQMNSLKPEDTAVYYCNAGETTASSVRQYWGQGTQVTVSS
notes: Alpaca VHH tested as culture supernatant of IPTG-induced HB2151 bacteria (pComb3XSS phagemid); also called clone C30
B8: C31 (VHH)
VHH: B7 VHH with Q1A, F52W, V117I
notes: Alpaca VHH tested as culture supernatant of IPTG-induced HB2151 bacteria (pComb3XSS phagemid); also called clone C31

Positions count from the first letter of the chain named.

T1 sequence (P25092 24-430): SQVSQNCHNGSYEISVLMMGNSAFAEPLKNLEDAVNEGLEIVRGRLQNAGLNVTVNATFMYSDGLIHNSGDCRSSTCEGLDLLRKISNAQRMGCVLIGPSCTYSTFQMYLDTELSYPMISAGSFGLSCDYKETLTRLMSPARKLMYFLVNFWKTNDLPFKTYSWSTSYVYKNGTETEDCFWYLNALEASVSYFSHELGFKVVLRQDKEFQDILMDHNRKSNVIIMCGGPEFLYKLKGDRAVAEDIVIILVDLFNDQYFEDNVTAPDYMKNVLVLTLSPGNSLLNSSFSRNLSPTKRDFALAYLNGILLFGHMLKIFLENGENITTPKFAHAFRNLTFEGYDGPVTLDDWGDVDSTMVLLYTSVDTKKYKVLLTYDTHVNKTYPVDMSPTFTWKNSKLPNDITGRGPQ

This assay has as its target T1, GUCY2C protein (Ser24-Gln430) (Homo sapiens (Human), UniProt P25092 24-430).
T1 construct: Synthesized by GenScript and used as the immunogen; No tags are stated; also called extracellular region of the artificially synthesized GUCY2C protein; Protein GUCY2C
Nature of the assay: Screening ELISA: culture supernatant of the IPTG-induced HB2151 clone on a plate coated with 1 ug/ml GUCY2C; detection with peroxidase goat anti-alpaca IgG (VHH domain), TMB, absorbance at 450 nm; VHH concentration not given; negative control (NC) bar in the same chart is labelled 0.15. As for the experimental part: The phages of 3 rounds screening were transfected into HB2151 bacteria, and 100 ul of infected HB2151 bacteria were taken to scrape on the surface of 2×YT-AG solid culture dish. 96 single clones were picked and added into 2×YT medium, then cultured in a 96 deep-well plate. 0.8 mM IPTG was added into the medium when the bacteria grew to logarithmic phase and were cultured overnight at 25° C. The supernatant of medium was added to the 1 ug/ml GUCY2C coated ELISA plate which was contained in two control wells. After incubating for 2 hours at 37° C., the plate was washed 3 times with PBST. Peroxidase AffiniPure Goat anti-Alpaca IgG, VHH domain (Jackson Immumo Research) was added into the Elisa plate, incubated at 37° C. for 1 hour and washed 3 times with PBST. TMB solution was added for 20 minutes, then the reaction was stopped with 2M sulfuric acid. The absorbance value at 450 nm wavelength was read on the microplate reader (FIG. 2). Clones with an absorbance value 2.1 times higher than the negative control were considered positive clones and were sent to sequencing.
Background: In an ELISA, binding on a coated surface is turned into a signal by an enzyme label.
As to B1, the OD450 turned out to be 2.
To B2 belongs 1.47; to B3, 0.8; to B4, 0.86.
As to B5, the OD450 amounted to 0.42.
The value for B6 was 1; that for B7 was 0.93.
On to B8, for which the OD450 was 0.45.

The record behind these values is patent US20240059794A1 (PARASOL BIOTECH, published 2024).
